Patent US20130011875A1

Legend:
[1] = target: recombinant human Met-granulocyte colony-stimulating factor (rHuMetGCSF) (Homo sapiens) (UniProt P09919); assay: cell-based or functional assay
[2] = target: TNFRII-Fc (tumor necrosis factor receptor 2 ectodomain fused to Fc region of IgG1); assay: cell-based or functional assay
TNFRII-Fc (tumor necrosis factor receptor 2 ectodomain fused to Fc region of IgG1), sequence (chain, as listed by the source limits assumed): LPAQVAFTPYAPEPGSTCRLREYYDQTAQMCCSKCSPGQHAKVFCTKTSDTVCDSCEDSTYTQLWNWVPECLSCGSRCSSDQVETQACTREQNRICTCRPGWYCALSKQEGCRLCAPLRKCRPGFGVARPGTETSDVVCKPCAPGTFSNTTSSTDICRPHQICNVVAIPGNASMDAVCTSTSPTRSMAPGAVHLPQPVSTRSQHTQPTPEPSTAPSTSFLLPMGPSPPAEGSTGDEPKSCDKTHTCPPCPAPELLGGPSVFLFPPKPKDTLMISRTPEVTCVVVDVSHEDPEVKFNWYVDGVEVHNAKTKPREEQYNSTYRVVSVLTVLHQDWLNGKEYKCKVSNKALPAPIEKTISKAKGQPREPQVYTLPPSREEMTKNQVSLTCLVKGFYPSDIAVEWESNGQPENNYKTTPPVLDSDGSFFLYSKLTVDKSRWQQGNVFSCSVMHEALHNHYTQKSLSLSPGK

relative rhGCSF titer in fermentation supernatant (GCSF ELISA), vps10-1 deletion mutant yGLY9933 against parental strain yGLY8538 [1]: > 7 fold
Substance: Pichia pastoris vacuolar protein sorting receptor 10-1 (Vps10-1) (from UniProt C4R192 21-1542)
relative TNFRII-Fc titer in deep-well plate supernatant (ELISA), vps10-1 deletion mutants yGLY9992 and yGLY9993 against parental wild-type strain yGLY8292 [2]: 10 fold
